In data set [1] the target is T1, Hfq wt (Salmonella, UniProt P0A1R0 1-102). The experiment in a line: EMSA; 3 nM Hfq hexamer; 24 mM Tris-HCl pH 7.5, 50 mM NaCl, 50 mM NH4Cl, 50 mM KCl, 0.5 mM EDTA, 2 mM MgCl2, 5% glycerol, room temperature, 1 h; 6% native gel in 1x THEM2. The note with it: protein: recombinant; tags: C-terminal His6; chain copies: 6; label: 32P.
Data set [2] has as its target T1, Hfq wt. Kind of data set: EMSA; 24 mM Tris-HCl pH 7.5, 50 mM NaCl, 50 mM NH4Cl, 50 mM KCl, 0.5 mM EDTA, 2 mM MgCl2, 5% glycerol, room temperature, 1 h; 6% native gel in 1x THEM2. The note with it: protein: recombinant, tags: C-terminal His6, chain copies: 6, label: 5'-32P.
Data set [3] addresses T1, Hfq wt. The experiment in a line: EMSA; two nonspecific sites (Kns); 24 mM Tris-HCl pH 7.5, 50 mM NaCl, 50 mM NH4Cl, 50 mM KCl, 0.5 mM EDTA, 2 mM MgCl2, 5% glycerol, room temperature, 1 h; 6% native gel in 1x THEM2. The note with it: protein: recombinant, tags: C-terminal His6, chain copies: 6, label: 5'-32P.
Data set [4] addresses T1, Hfq wt. Kind of data set: EMSA; specific site (Ks); 24 mM Tris-HCl pH 7.5, 50 mM NaCl, 50 mM NH4Cl, 50 mM KCl, 0.5 mM EDTA, 2 mM MgCl2, 5% glycerol, room temperature, 1 h; 6% native gel in 1x THEM2. Conditions: protein: recombinant, tags: C-terminal His6, chain copies: 6, label: 5'-32P.
Data set [5] deals with T2, Hfq R16A (Salmonella, UniProt P0A1R0 1-102, R16A). The experiment in a line: EMSA; tightest complex; 24 mM Tris-HCl pH 7.5, 50 mM NaCl, 50 mM NH4Cl, 50 mM KCl, 0.5 mM EDTA, 2 mM MgCl2, 5% glycerol, room temperature, 1 h; 6% native gel in 1x THEM2. Conditions: protein: recombinant; tags: C-terminal His6; chain copies: 6; label: 5'-32P; five stem-loops SL1-SL5.
Data set [6] deals with T3, Hfq Y25D (Salmonella, UniProt P0A1R0 1-102, Y25D). The description is as above. Conditions: protein: recombinant; tags: C-terminal His6; chain copies: 6; label: 5'-32P; five stem-loops SL1-SL5.
The target in data set [7] is T4, Hfq K56A (Salmonella, UniProt P0A1R0 1-102, K56A). The data set is described as above. The note with it: protein: recombinant; tags: C-terminal His6; chain copies: 6; label: 5'-32P; five stem-loops SL1-SL5.
Data set [8] addresses T2, Hfq R16A. Kind of data set: EMSA; 24 mM Tris-HCl pH 7.5, 50 mM NaCl, 50 mM NH4Cl, 50 mM KCl, 0.5 mM EDTA, 2 mM MgCl2, 5% glycerol, room temperature, 1 h; 6% native gel in 1x THEM2. The note with it: protein: recombinant; tags: C-terminal His6; chain copies: 6; label: 5'-32P.
In data set [9] the target is T3, Hfq Y25D. The description is as above. The note with it: protein: recombinant; tags: C-terminal His6; chain copies: 6; label: 5'-32P.
For data set [10], the target named is T4, Hfq K56A. Described as above. Conditions: protein: recombinant; tags: C-terminal His6; chain copies: 6; label: 5'-32P.

Among the data in paper PMC4911921, “Hfq assists small RNAs in binding to the coding sequence of ompD mRNA and in rearranging its structure” are binding result, binding signal and Kd values, retold here.

B1: SdsR-18 (ssRNA)
RNA: GCCUGCAUUAAUGCCAAC
For B1, in the data set with Hfq wt [1], the binding result is “no binding”.

B2: ompD-93-187 (structured_RNA)
RNA: GGCAGUGACUUCCCUGUUGGCAGCAGGCGUUGUAAAUGCAGCCGAGGUAUAUAACAAAGACGGCAAUAAACUGGAUCUGUACGGUAAAGUUCACG
For B2, in the data set with Hfq wt [2] (SL3, SL4, SL5), the binding signal was about 6 fold weaker than ompD-187.

B3: ompD-35-131 (structured_RNA)
RNA: GGAAACACGCUAAGAAAAUUAUAAGGAUUAUUAAAAUGAAACUUAAGUUAGUGGCAGUGGCAGUGACUUCCCUGUUGGCAGCAGGCGUUGUAAAUGC
With B3, the binding signal with Hfq wt [2] (SL2, SL3) was ~4 fold tighter than ompD-187.

B4: ompD-187 (structured_RNA)
RNA: GCCAUUGACAAACGCCUCGUUUAACAAUGGUUGAGGAAACACGCUAAGAAAAUUAUAAGGAUUAUUAAAAUGAAACUUAAGUUAGUGGCAGUGGCAGUGACUUCCCUGUUGGCAGCAGGCGUUGUAAAUGCAGCCGAGGUAUAUAACAAAGACGGCAAUAAACUGGAUCUGUACGGUAAAGUUCACG
Take B4: the figures for the Kd with Hfq wt [3] (five stem-loops SL1-SL5) and with Hfq wt [4] (five stem-loops SL1-SL5) were 1.9 ± 0.58 nM and 0.61 ± 0.17 nM, respectively. The values for the binding signal with Hfq R16A [5], with Hfq Y25D [6] and in the data set with Hfq K56A [7] were ~1 fold vs wt Hfq (not changed), about 3 fold weaker than wt Hfq and about 2 fold weaker than wt Hfq, respectively.

B5: ompD-187 ARN-6 (structured_RNA)
RNA: GCCAUUGACAAACGCCUCGUUUAACAAUGGUUGAGGAAACACGCUAAGAAAAUUAUAAGGAUUAUUAAAAUGAAACUUAAGUUAGUGGCAGUGGCAGUGACUUCCCUGUUGGCAGCAGGCGUUGUAAAUGCAGCCGAGGUAUAUAACAAAGACGGCCAUUCACUGGAUCUGUACGGUAAAGUUCACG
For B5, the Kd with Hfq wt [3] amounted to 2.4 ± 0.29 nM; with Hfq wt [4], 0.82 ± 0.075 nM.

B6: ompD-187 ARN-1 (structured_RNA)
RNA: GCCAUUGACAAACGCCUCGUUUCGCAAUGGUUGAGGAAACACGCUAAGAAAAUUAUAAGGAUUAUUAAAAUGAAACUUAAGUUAGUGGCAGUGGCAGUGACUUCCCUGUUGGCAGCAGGCGUUGUAAAUGCAGCCGAGGUAUAUAACAAAGACGGCAAUAAACUGGAUCUGUACGGUAAAGUUCACG
Consider B6, for which the Kd with Hfq wt [3] is 3 ± 0.46 nM; with Hfq wt [4] it was 0.77 ± 0.097 nM.

B7: ompD-187 ARN-2 (structured_RNA)
RNA: GCCAUUGACAAACGCCUCGUUUAACAAUGGUUGUUGAUACACGCUAAGAAAAUUAUAAGGAUUAUUAAAAUGAAACUUAAGUUAGUGGCAGUGGCAGUGACUUCCCUGUUGGCAGCAGGCGUUGUAAAUGCAGCCGAGGUAUAUAACAAAGACGGCAAUAAACUGGAUCUGUACGGUAAAGUUCACG
Turning to B7, the Kd in the data set with Hfq wt [3] came out at 2.2 ± 0.25 nM; with Hfq wt [4], 0.85 ± 0.003 nM.

B8: ompD-187 ARN-5 (structured_RNA)
RNA: GCCAUUGACAAACGCCUCGUUUAACAAUGGUUGAGGAAACACGCUAAGAAAAUUAUAAGGAUUAUUAAAAUGAAACUUAAGUUAGUGGCAGUGGCAGUGACUUCCCUGUUGGCAGCAGGCGUUGUAAAUGCAGCCGAGGUAUAUAACGAGGACGGCAAUAAACUGGAUCUGUACGGUAAAGUUCACG
Consider B8, for which the Kd was determined as 3 ± 0.46 nM with Hfq wt [3] and 0.89 ± 0.093 nM with Hfq wt [4].

B9: ompD-187 ARN-5+6 (structured_RNA)
RNA: GCCAUUGACAAACGCCUCGUUUAACAAUGGUUGAGGAAACACGCUAAGAAAAUUAUAAGGAUUAUUAAAAUGAAACUUAAGUUAGUGGCAGUGGCAGUGACUUCCCUGUUGGCAGCAGGCGUUGUAAAUGCAGCCGAGGUAUAUAACGAGGACGGCCAUUCACUGGAUCUGUACGGUAAAGUUCACG
For B9, in the data set with Hfq wt [4], the Kd is 0.81 ± 0.09 nM.

B10: ompD-187 ARN-3 (structured_RNA)
RNA: GCCAUUGACAAACGCCUCGUUUAACAAUGGUUGAGGAAACACGCUUUGAUAUUAUAAGGAUUAUUAAAAUGAAACUUAAGUUAGUGGCAGUGGCAGUGACUUCCCUGUUGGCAGCAGGCGUUGUAAAUGCAGCCGAGGUAUAUAACAAAGACGGCAAUAAACUGGAUCUGUACGGUAAAGUUCACG
With B10, the Kd with Hfq wt [3] is 2.9 ± 0.35 nM; in the data set with Hfq wt [4], 0.93 ± 0.24 nM. For the same molecule, the values for the binding signal in the data set with Hfq R16A [8], with Hfq Y25D [9] and with Hfq K56A [10] were ~6 fold weaker than R16A to ompD-187, ~1 fold vs same Hfq mutant to ompD-187 (similar) and ~1 fold vs same Hfq mutant to ompD-187 (similar), respectively.

B11: RybB-16 (ssRNA)
RNA: GCCACUGCUUUUCUUU
As for B11, the binding result with Hfq wt [1] is reported as “no binding”.

B12: ompD-19S (ssRNA)
RNA: CCUGUUGGCAGCAGGCGUU
B12: the binding result with Hfq wt [1] is given as “no binding”.

B13: ompD-187-SL2mut (structured_RNA)
RNA: GGCCAUUGACAAACGCCUCGUUUAACAAUGGUUGAGGAAACACGCUUUGAUAAUUCUAGGGCUUAUUUUUAUGAUGCUUAAGUUAGUGGCAGUGGCAGUGACUUCCCUGUUGGCAGCAGGCGUUGUAAAUGCAGCCGAGGUAUAUAACAAAGACGGCAAUAAACUGGAUCUGUACGGUAAAGUUCACG
For the molecule B13, the binding signal with Hfq R16A [8] was ~10 fold weaker than R16A to ompD-187; with Hfq wt [2], about 3 fold weaker than ompD-187; in the data set with Hfq Y25D [9], ~1 fold vs same Hfq mutant to ompD-187 (similar); with Hfq K56A [10], ~1 fold vs same Hfq mutant to ompD-187 (similar).

B14: ompD-1-95 (structured_RNA)
RNA: GCCAUUGACAAACGCCUCGUUUAACAAUGGUUGAGGAAACACGCUAAGAAAAUUAUAAGGAUUAUUAAAAUGAAACUUAAGUUAGUGGCAGUGGC
B14: in the data set with Hfq wt [2] (SL1, SL2), the binding signal was ~1 fold vs ompD-187 (similar).

B15: ompD-21R (ssRNA)
RNA: UAAGUUAGUGGCAGUGGCAGU
For B15, the binding result with Hfq wt [1] is recorded as “no binding”.

B16: ompD-18M (ssRNA)
RNA: GCCGAGGUAUAUAACAAA
On to B16, for which the binding result with Hfq wt [1] was “no binding”.

B17: MicC-12 (ssRNA)
RNA: GUUAUAUGCCUU
B17: in the data set with Hfq wt [1], the binding result was “no binding”.
